Results from the supplement of paper PMC10126150.
± gives the standard deviation of the averaged measurements.

test system: ATP; assay: switch fluorescence ratio, 500 uM ATP over buffer (Cy3 cluster intensity, sum of 5 cycles each) (fold (ratio)); higher = stronger signal-on switching upon ATP binding; sequences stand for … in TCGTCGGCAGCGTCAGATGTGTATAAGAGACAGTTTTTTTTTTTTTTTTTTTTTTTTT…TC; details: aptamer strand: ATP DNA aptamer (quencher-CACCTGGGGGAGTATTGCGGAGGAAGG + anchor), 100 nM annealed; ATP concentration: 500 uM
How it was run: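 Clusters with intensities outside 100-1000 RFU were excluded. The remaining Cy3-labelled switching-strand clusters on a modified Illumina MiSeq flow-cell had been annealed to 100 nM quencher-labelled ATP aptamer and imaged in selection buffer, then after 15 min with 500 uM ATP at 22 °C, for five cycles separated by NaOH stripping and re-annealing. The fluorescence ratio, averaged per switch-domain sequence, is each cluster's summed target-cycle Cy3 intensity over its summed buffer-cycle Cy3 intensity.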
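Note: ATP exposure 15 min at 22 °C before imaging.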

Row | Sequence | switch fluorescence ratio
1 | TATTGAGACC | 1.03 ± 0.036
2 | TATTGAGATG | 0.998 ± 0.046
3 | TATTGATTGG | 0.9977 ± 0.0062
4 | TATTGCCAGG | 1.1 ± 0.036
5 | TATTGCCGCA | 1.057 ± 0.0085
6 | TATTGCTATT | 0.972 ± 0.017
7 | TATTGCTTTC | 1.03 ± 0.018
8 | TATTGGAGTT | 1.04 ± 0.015
9 | TATTGGATGC | 0.97 ± 0.032
10 | TATTGGATTA | 1.01 ± 0.026
11 | TATTGGCTTG | 0.985 ± 0.013
12 | TATTGGGAAT | 0.985 ± 0.01
13 | TATTGGGCCC | 0.9954 ± 0.0019
14 | TATTGTCGTT | 1.02 ± 0.029
15 | TATTGTGATA | 0.991 ± 0.039
16 | TATTGTGCGG | 1.01 ± 0.037
17 | TATTGTGGAG | 0.983 ± 0.024
18 | TATTGTGGTT | 1 ± 0.031
19 | TATTGTTAAA | 0.987 ± 0.029
20 | TATTGTTATG | 1 ± 0.028
21 | TATTGTTTGA | 0.9578 ± 0.0067
22 | TATTTAAAGC | 0.9768 ± 0.0092
23 | TATTTAAAGT | 1.02 ± 0.049
24 | TATTTAAT | 1.07 ± 0.11
25 | TATTTAATGA | 1.54 ± 0.81

Row | Sequence | switch fluorescence ratio
26 | TATTTACCGC | 1.13 ± 0.034
27 | TATTTAGGTT | 1.006 ± 0.006
28 | TATTTAGTCG | 0.975 ± 0.019
29 | TATTTATACA | 1.029 ± 0.0054
30 | TATTTATTGC | 1.01 ± 0.037
31 | TATTTATTTG | 1.02 ± 0.045
32 | TATTTCGAAC | 1.02 ± 0.015
33 | TATTTCTCGT | 1.01 ± 0.056
34 | TATTTGATGC | 1.02 ± 0.036
35 | TATTTGATTG | 1.001 ± 0.0041
36 | TATTTGCGCG | 0.967 ± 0.037
37 | TATTTGGGTG | 1.05 ± 0.023
38 | TATTTGGTTG | 0.995 ± 0.018
39 | TATTTTAGGT | 1.01 ± 0.048
40 | TATTTTAGTA | 1.01 ± 0.03
41 | TATTTTATTA | 1.011 ± 0.0085
42 | TATTTTCGGG | 1.011 ± 0.0078
43 | TATTTTGGGA | 1.02 ± 0.021
44 | TATTTTGTGA | 0.952 ± 0.018
45 | TATTTTGTTA | 1.01 ± 0.047
46 | TATTTTTAGT | 1 ± 0.027
47 | TATTTTTATT | 1.01 ± 0.021
48 | TATTTTTCGG | 0.984 ± 0.041
49 | TATTTTTGCT | 0.981 ± 0.032
50 | TATTTTTTTC | 1 ± 0.018

Row | Sequence | switch fluorescence ratio
51 | TCAAACGTAT | 1.06 ± 0.022
52 | TCAAAGAATA | 1.02 ± 0.029
53 | TCAAAGTCAT | 0.991 ± 0.0068
54 | TCAAAGTCCT | 1.01 ± 0.02
55 | TCAAAGTTTT | 1.01 ± 0.023
56 | TCAAATTAGC | 0.986 ± 0.023
57 | TCAAATTTTC | 1.02 ± 0.026
58 | TCAACAGGGA | 1.08 ± 0.15
59 | TCAAGAAGGT | 1 ± 0.018
60 | TCAAGAGTTA | 0.99 ± 0.035
61 | TCAAGGGTGA | 1.03 ± 0.022
62 | TCAAGTATCA | 1.02 ± 0.02
63 | TCAAGTGGGG | 1.01 ± 0.053
64 | TCAAGTTAAG | 0.9772 ± 0.0014
65 | TCAAGTTTTT | 1.012 ± 0.0044
66 | TCAATATGTT | 1.004 ± 0.0073
67 | TCAATCAGAG | 1.01 ± 0.0045
68 | TCAATCGTGG | 1.01 ± 0.021
69 | TCAATCTGGG | 1.006 ± 0.0066
70 | TCAATCTTCT | 1.032 ± 0.0095
71 | TCAATGATGG | 1 ± 0.0046
72 | TCAATTATAC | 1.94 ± 0.41
73 | TCAATTCTAC | 1.02 ± 0.041
74 | TCAATTTGTT | 0.992 ± 0.033
75 | TCACAGCTGG | 1.04 ± 0.016

Row | Sequence | switch fluorescence ratio
76 | TCACAGGTTT | 1.05 ± 0.017
77 | TCACATAGTT | 1.01 ± 0.0061
78 | TCACATTATT | 1.04 ± 0.02
79 | TCACCTTATT | 1.03 ± 0.022
80 | TCACGAACCT | 1.69 ± 0.1
81 | TCACGAGTTT | 1.014 ± 0.0038
82 | TCACGGAAGT | 1.022 ± 0.0036
83 | TCACGGGGGC | 0.976 ± 0.061
84 | TCACGGGTTC | 1.03 ± 0.031
85 | TCACGTGGCT | 0.975 ± 0.015
86 | TCACGTTGTT | 0.981 ± 0.036
87 | TCACTATACA | 1.315 ± 0.0077
88 | TCACTATTTA | 1.013 ± 0.0082
89 | TCACTATTTT | 1.01 ± 0.02
90 | TCAGAAGGCT | 0.999 ± 0.065
91 | TCAGAATATT | 0.978 ± 0.023
92 | TCAGAGATGA | 0.95 ± 0.026
93 | TCAGAGGCTT | 0.996 ± 0.04
94 | TCAGAGTGCT | 1.03 ± 0.025
95 | TCAGATCTGT | 1 ± 0.024
96 | TCAGATGGTG | 1.02 ± 0.014
97 | TCAGCAGGTT | 2.85 ± 2.2
98 | TCAGCATTTT | 1.01 ± 0.046
99 | TCAGGAGGGG | 0.997 ± 0.02
100 | TCAGGGGGAC | 1.78 ± 1.3
